Source: the Human Domainome abundance scans (Beltran et al. 2025)
± gives the uncertainty stated by the source.

B1: Protein C-ets-1, residues 55 to 135; numbered along this chain, P14921 (parent)
chain: GFTKEQQRLGIPKDPRQWTETHVRDWVMWAVNEFSLKGVDFQKFCMNGAALCALGKDCFLELAPDFVGDILWEHLEILQKE

Variants of: B1
Assay: abundance fitness (aPCA) (normalised: wild type 0, dead -1); higher = more abundant; growth selection in yeast, the domain comes from the species named
Conditions: Homo sapiens

Row | Variant | abundance fitness
1 | GFTKEQQRLGIPKDPRQWTETHVRDWVMWATNEFSLKGVDFQKFCMNGAALCALGKDCFLELAPDFVGDILWEHLEILQKE | 0.006 ± 0.044
2 | GFTKEQQRLGIPKDPRQWTETHVRDWVMWAINEFSLKGVDFQKFCMNGAALCALGKDCFLELAPDFVGDILWEHLEILQKE | -0.053 ± 0.07
3 | GFTKEQQRLGIPKDPRQWTETHVRDWVMWACNEFSLKGVDFQKFCMNGAALCALGKDCFLELAPDFVGDILWEHLEILQKE | -0.013 ± 0.045
4 | GFTKEQQRLGIPKDPRQWTETHVRDWVMWAGNEFSLKGVDFQKFCMNGAALCALGKDCFLELAPDFVGDILWEHLEILQKE | -0.427 ± 0.03
5 | GFTKEQQRLGIPKDPRQWTETHVRDWVMWAENEFSLKGVDFQKFCMNGAALCALGKDCFLELAPDFVGDILWEHLEILQKE | -0.19 ± 0.053
6 | GFTKEQQRLGIPKDPRQWTETHVRDWVMWALNEFSLKGVDFQKFCMNGAALCALGKDCFLELAPDFVGDILWEHLEILQKE | -0.326 ± 0.029
7 | GFTKEQQRLGIPKDPRQWTETHVRDWVMWADNEFSLKGVDFQKFCMNGAALCALGKDCFLELAPDFVGDILWEHLEILQKE | -0.491 ± 0.055
8 | GFTKEQQRLGIPKDPRQWTETHVRDWVMWAFNEFSLKGVDFQKFCMNGAALCALGKDCFLELAPDFVGDILWEHLEILQKE | -0.645 ± 0.067
9 | GFTKEQQRLGIPKDPRQWTETHVRDWVMWAANEFSLKGVDFQKFCMNGAALCALGKDCFLELAPDFVGDILWEHLEILQKE | 0.018 ± 0.037
10 | GFTKEQQRLGIPKDPRQWTETHVRDWVMWAYNEFSLKGVDFQKFCMNGAALCALGKDCFLELAPDFVGDILWEHLEILQKE | -0.44 ± 0.066
11 | GFTKEQQRLGIPKDPRQWTETHVRDWVMWARNEFSLKGVDFQKFCMNGAALCALGKDCFLELAPDFVGDILWEHLEILQKE | -0.274 ± 0.027
12 | GFTKEQQRLGIPKDPRQWTETHVRDWVMWAHNEFSLKGVDFQKFCMNGAALCALGKDCFLELAPDFVGDILWEHLEILQKE | -0.495 ± 0.071
13 | GFTKEQQRLGIPKDPRQWTETHVRDWVMWAQNEFSLKGVDFQKFCMNGAALCALGKDCFLELAPDFVGDILWEHLEILQKE | -0.126 ± 0.04
14 | GFTKEQQRLGIPKDPRQWTETHVRDWVMWANNEFSLKGVDFQKFCMNGAALCALGKDCFLELAPDFVGDILWEHLEILQKE | -0.401 ± 0.067
15 | GFTKEQQRLGIPKDPRQWTETHVRDWVMWAKNEFSLKGVDFQKFCMNGAALCALGKDCFLELAPDFVGDILWEHLEILQKE | -0.18 ± 0.054
16 | GFTKEQQRLGIPKDPRQWTETHVRDWVMWASNEFSLKGVDFQKFCMNGAALCALGKDCFLELAPDFVGDILWEHLEILQKE | -0.076 ± 0.03
17 | GFTKEQQRLGIPKDPRQWTETHVRDWVMWAMNEFSLKGVDFQKFCMNGAALCALGKDCFLELAPDFVGDILWEHLEILQKE | -0.069 ± 0.04
18 | GFTKEQQRLGIPKDPRQWTETHVRDWVMNAVNEFSLKGVDFQKFCMNGAALCALGKDCFLELAPDFVGDILWEHLEILQKE | -0.586 ± 0.11
19 | GFTKEQQRLGIPKDPRQWTETHVRDWVMAAVNEFSLKGVDFQKFCMNGAALCALGKDCFLELAPDFVGDILWEHLEILQKE | -0.415 ± 0.036
20 | GFTKEQQRLGIPKDPRQWTETHVRDWVMQAVNEFSLKGVDFQKFCMNGAALCALGKDCFLELAPDFVGDILWEHLEILQKE | -0.59 ± 0.058
21 | GFTKEQQRLGIPKDPRQWTETHVRDWVMKAVNEFSLKGVDFQKFCMNGAALCALGKDCFLELAPDFVGDILWEHLEILQKE | -0.659 ± 0.064
22 | GFTKEQQRLGIPKDPRQWTETHVRDWVMRAVNEFSLKGVDFQKFCMNGAALCALGKDCFLELAPDFVGDILWEHLEILQKE | -0.489 ± 0.031
23 | GFTKEQQRLGIPKDPRQWTETHVRDWVMGAVNEFSLKGVDFQKFCMNGAALCALGKDCFLELAPDFVGDILWEHLEILQKE | -0.492 ± 0.038

Row | Variant | abundance fitness
24 | GFTKEQQRLGIPKDPRQWTETHVRDWVMDAVNEFSLKGVDFQKFCMNGAALCALGKDCFLELAPDFVGDILWEHLEILQKE | -0.685 ± 0.064
25 | GFTKEQQRLGIPKDPRQWTETHVRDWVMEAVNEFSLKGVDFQKFCMNGAALCALGKDCFLELAPDFVGDILWEHLEILQKE | -0.561 ± 0.068
26 | GFTKEQQRLGIPKDPRQWTETHVRDWVMSAVNEFSLKGVDFQKFCMNGAALCALGKDCFLELAPDFVGDILWEHLEILQKE | -0.395 ± 0.034
27 | GFTKEQQRLGIPKDPRQWTETHVRDWVMTAVNEFSLKGVDFQKFCMNGAALCALGKDCFLELAPDFVGDILWEHLEILQKE | -0.515 ± 0.047
28 | GFTKEQQRLGIPKDPRQWTETHVRDWVMIAVNEFSLKGVDFQKFCMNGAALCALGKDCFLELAPDFVGDILWEHLEILQKE | -0.803 ± 0.11
29 | GFTKEQQRLGIPKDPRQWTETHVRDWVMVAVNEFSLKGVDFQKFCMNGAALCALGKDCFLELAPDFVGDILWEHLEILQKE | -0.767 ± 0.044
30 | GFTKEQQRLGIPKDPRQWTETHVRDWVMCAVNEFSLKGVDFQKFCMNGAALCALGKDCFLELAPDFVGDILWEHLEILQKE | -0.364 ± 0.061
31 | GFTKEQQRLGIPKDPRQWTETHVRDWVNWAVNEFSLKGVDFQKFCMNGAALCALGKDCFLELAPDFVGDILWEHLEILQKE | 0.054 ± 0.06
32 | GFTKEQQRLGIPKDPRQWTETHVRDWVRWAVNEFSLKGVDFQKFCMNGAALCALGKDCFLELAPDFVGDILWEHLEILQKE | -0.004 ± 0.029
33 | GFTKEQQRLGIPKDPRQWTETHVRDWVQWAVNEFSLKGVDFQKFCMNGAALCALGKDCFLELAPDFVGDILWEHLEILQKE | 0.014 ± 0.049
34 | GFTKEQQRLGIPKDPRQWTETHVRDWVYWAVNEFSLKGVDFQKFCMNGAALCALGKDCFLELAPDFVGDILWEHLEILQKE | -0.153 ± 0.087
35 | GFTKEQQRLGIPKDPRQWTETHVRDWVVWAVNEFSLKGVDFQKFCMNGAALCALGKDCFLELAPDFVGDILWEHLEILQKE | 0.009 ± 0.032
36 | GFTKEQQRLGIPKDPRQWTETHVRDWVPWAVNEFSLKGVDFQKFCMNGAALCALGKDCFLELAPDFVGDILWEHLEILQKE | -0.88 ± 0.069
37 | GFTKEQQRLGIPKDPRQWTETHVRDWVFWAVNEFSLKGVDFQKFCMNGAALCALGKDCFLELAPDFVGDILWEHLEILQKE | -0.088 ± 0.057
38 | GFTKEQQRLGIPKDPRQWTETHVRDWVLWAVNEFSLKGVDFQKFCMNGAALCALGKDCFLELAPDFVGDILWEHLEILQKE | -0.022 ± 0.031
39 | GFTKEQQRLGIPKDPRQWTETHVRDWVAWAVNEFSLKGVDFQKFCMNGAALCALGKDCFLELAPDFVGDILWEHLEILQKE | -0.026 ± 0.033
40 | GFTKEQQRLGIPKDPRQWTETHVRDWVEWAVNEFSLKGVDFQKFCMNGAALCALGKDCFLELAPDFVGDILWEHLEILQKE | 0.005 ± 0.047
41 | GFTKEQQRLGIPKDPRQWTETHVRDWVWWAVNEFSLKGVDFQKFCMNGAALCALGKDCFLELAPDFVGDILWEHLEILQKE | -0.11 ± 0.039
42 | GFTKEQQRLGIPKDPRQWTETHVRDWVKWAVNEFSLKGVDFQKFCMNGAALCALGKDCFLELAPDFVGDILWEHLEILQKE | -0.016 ± 0.04
43 | GFTKEQQRLGIPKDPRQWTETHVRDWVSWAVNEFSLKGVDFQKFCMNGAALCALGKDCFLELAPDFVGDILWEHLEILQKE | 0.017 ± 0.033
44 | GFTKEQQRLGIPKDPRQWTETHVRDWVIWAVNEFSLKGVDFQKFCMNGAALCALGKDCFLELAPDFVGDILWEHLEILQKE | 0.006 ± 0.073
45 | GFTKEQQRLGIPKDPRQWTETHVRDWVCWAVNEFSLKGVDFQKFCMNGAALCALGKDCFLELAPDFVGDILWEHLEILQKE | -0.006 ± 0.054
46 | GFTKEQQRLGIPKDPRQWTETHVRDWVTWAVNEFSLKGVDFQKFCMNGAALCALGKDCFLELAPDFVGDILWEHLEILQKE | 0.07 ± 0.045

Row | Variant | abundance fitness
47 | GFTKEQQRLGIPKDPRQWTETHVRDWVGWAVNEFSLKGVDFQKFCMNGAALCALGKDCFLELAPDFVGDILWEHLEILQKE | -0.055 ± 0.028
48 | GFTKEQQRLGIPKDPRQWTETHVRDWVMWMVNEFSLKGVDFQKFCMNGAALCALGKDCFLELAPDFVGDILWEHLEILQKE | -0.008 ± 0.055
49 | GFTKEQQRLGIPKDPRQWTETHVRDWVMWKVNEFSLKGVDFQKFCMNGAALCALGKDCFLELAPDFVGDILWEHLEILQKE | -0.366 ± 0.07
50 | GFTKEQQRLGIPKDPRQWTETHVRDWVMWFVNEFSLKGVDFQKFCMNGAALCALGKDCFLELAPDFVGDILWEHLEILQKE | -0.187 ± 0.086
51 | GFTKEQQRLGIPKDPRQWTETHVRDWVMWSVNEFSLKGVDFQKFCMNGAALCALGKDCFLELAPDFVGDILWEHLEILQKE | -0.062 ± 0.029
52 | GFTKEQQRLGIPKDPRQWTETHVRDWVMWWVNEFSLKGVDFQKFCMNGAALCALGKDCFLELAPDFVGDILWEHLEILQKE | -0.195 ± 0.039
53 | GFTKEQQRLGIPKDPRQWTETHVRDWVMWPVNEFSLKGVDFQKFCMNGAALCALGKDCFLELAPDFVGDILWEHLEILQKE | -0.8 ± 0.074
54 | GFTKEQQRLGIPKDPRQWTETHVRDWVMWDVNEFSLKGVDFQKFCMNGAALCALGKDCFLELAPDFVGDILWEHLEILQKE | -0.671 ± 0.086
55 | GFTKEQQRLGIPKDPRQWTETHVRDWVMWEVNEFSLKGVDFQKFCMNGAALCALGKDCFLELAPDFVGDILWEHLEILQKE | -0.032 ± 0.044
56 | GFTKEQQRLGIPKDPRQWTETHVRDWVMWGVNEFSLKGVDFQKFCMNGAALCALGKDCFLELAPDFVGDILWEHLEILQKE | -0.197 ± 0.033
57 | GFTKEQQRLGIPKDPRQWTETHVRDWVMWHVNEFSLKGVDFQKFCMNGAALCALGKDCFLELAPDFVGDILWEHLEILQKE | -0.107 ± 0.098
58 | GFTKEQQRLGIPKDPRQWTETHVRDWVMWIVNEFSLKGVDFQKFCMNGAALCALGKDCFLELAPDFVGDILWEHLEILQKE | -0.196 ± 0.079
59 | GFTKEQQRLGIPKDPRQWTETHVRDWVMWRVNEFSLKGVDFQKFCMNGAALCALGKDCFLELAPDFVGDILWEHLEILQKE | -0.643 ± 0.045
60 | GFTKEQQRLGIPKDPRQWTETHVRDWVMWCVNEFSLKGVDFQKFCMNGAALCALGKDCFLELAPDFVGDILWEHLEILQKE | -0.02 ± 0.059
61 | GFTKEQQRLGIPKDPRQWTETHVRDWVMWYVNEFSLKGVDFQKFCMNGAALCALGKDCFLELAPDFVGDILWEHLEILQKE | -0.188 ± 0.13
62 | GFTKEQQRLGIPKDPRQWTETHVRDWVMWQVNEFSLKGVDFQKFCMNGAALCALGKDCFLELAPDFVGDILWEHLEILQKE | -0.183 ± 0.051
63 | GFTKEQQRLGIPKDPRQWTETHVRDWVMWNVNEFSLKGVDFQKFCMNGAALCALGKDCFLELAPDFVGDILWEHLEILQKE | -0.108 ± 0.092
64 | GFTKEQQRLGIPKDPRQWTETHVRDWVMWTVNEFSLKGVDFQKFCMNGAALCALGKDCFLELAPDFVGDILWEHLEILQKE | 0.003 ± 0.04
65 | GFTKEQQRLGIPKDPRQWTETHVRDWVMWLVNEFSLKGVDFQKFCMNGAALCALGKDCFLELAPDFVGDILWEHLEILQKE | -0.187 ± 0.036
66 | GFTKEQQRLGIPKDPRQWTETHVRDWVMWAVDEFSLKGVDFQKFCMNGAALCALGKDCFLELAPDFVGDILWEHLEILQKE | 0.046 ± 0.051
67 | GFTKEQQRLGIPKDPRQWTETHVRDWVMWAVAEFSLKGVDFQKFCMNGAALCALGKDCFLELAPDFVGDILWEHLEILQKE | -0.001 ± 0.032
68 | GFTKEQQRLGIPKDPRQWTETHVRDWVMWAVCEFSLKGVDFQKFCMNGAALCALGKDCFLELAPDFVGDILWEHLEILQKE | -0.132 ± 0.044
